# Data from publication PMC6639382, “Structural mechanism of synergistic activation of Aurora kinase B/C by phosphorylated INCENP” (Nature Communications, 2019).
# T1: Aurora kinase A (AURKA) (Homo sapiens, UniProt O14965)
# T1 construct: residues 122–403
# T1 sequence (O14965 122-403): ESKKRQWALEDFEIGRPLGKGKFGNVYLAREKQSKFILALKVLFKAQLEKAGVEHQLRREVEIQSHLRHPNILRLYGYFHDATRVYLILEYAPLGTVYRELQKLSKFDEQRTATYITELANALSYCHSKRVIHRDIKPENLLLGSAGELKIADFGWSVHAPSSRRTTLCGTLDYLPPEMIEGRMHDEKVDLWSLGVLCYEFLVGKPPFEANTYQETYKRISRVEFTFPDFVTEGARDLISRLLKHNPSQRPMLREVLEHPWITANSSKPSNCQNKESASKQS
# T2: Aurora kinase C kinase domain (truncation not stated for this experiment), phosphorylated (human)
# T2 sequence (Q9UQB9 whole entry, looked up): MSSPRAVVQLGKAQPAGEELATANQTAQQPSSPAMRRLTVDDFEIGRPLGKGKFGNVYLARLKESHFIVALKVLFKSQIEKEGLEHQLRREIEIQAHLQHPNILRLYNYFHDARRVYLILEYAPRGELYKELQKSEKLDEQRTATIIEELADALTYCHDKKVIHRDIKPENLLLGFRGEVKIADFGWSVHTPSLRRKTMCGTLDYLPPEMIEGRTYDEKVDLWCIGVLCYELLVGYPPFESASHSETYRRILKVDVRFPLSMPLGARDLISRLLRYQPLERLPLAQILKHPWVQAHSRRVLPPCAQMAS
# T3: Aurora kinase C kinase domain (truncation not stated for this experiment), phosphorylated
# T3 chain: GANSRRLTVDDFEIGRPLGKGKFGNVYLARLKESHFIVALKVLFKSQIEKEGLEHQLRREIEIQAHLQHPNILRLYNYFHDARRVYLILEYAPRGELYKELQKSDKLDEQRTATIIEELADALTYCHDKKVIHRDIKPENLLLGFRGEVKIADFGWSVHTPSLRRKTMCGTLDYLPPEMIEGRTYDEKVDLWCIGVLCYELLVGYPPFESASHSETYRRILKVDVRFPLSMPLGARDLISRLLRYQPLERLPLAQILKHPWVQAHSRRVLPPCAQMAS
# Columns and labels:
# [1] = biological target: T4, Aurora kinase C (AURKC) (Homo sapiens, UniProt Q9UQB9); experiment: co-crystal structure ([…] Å); assay type: binding
# T4 construct: residues 36–305 of AURKC isoform 1; with INCENP (residues 835–903, phosphorylated on Ser893 and Ser894)
# T4 sequence (Q9NQS7 835-903 partner, one chain of several): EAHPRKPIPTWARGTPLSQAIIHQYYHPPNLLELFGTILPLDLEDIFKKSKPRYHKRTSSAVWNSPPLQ
# [2] = biological target: T5, Aurora kinase B (AURKB) (Homo sapiens, UniProt Q96GD4); experiment: isothermal titration calorimetry; BLI kinetics (slow off-rate); assay type: binding
# T5 construct: kinase domain co-expressed with INCENP residues 835–903; with INCENP (residues 835–903)
# T5 sequence (Q96GD4 77-327 limits assumed): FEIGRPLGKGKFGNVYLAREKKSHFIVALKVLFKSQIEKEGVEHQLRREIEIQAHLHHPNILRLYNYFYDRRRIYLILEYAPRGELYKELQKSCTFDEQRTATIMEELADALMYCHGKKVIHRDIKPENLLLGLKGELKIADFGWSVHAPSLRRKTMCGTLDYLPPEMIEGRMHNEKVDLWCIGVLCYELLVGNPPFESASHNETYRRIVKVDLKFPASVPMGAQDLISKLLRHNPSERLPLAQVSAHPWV
# T5 sequence (Q9NQS7 835-903 partner): as the sequence (Q9NQS7 835-903 partner, one chain of several) above
# [3] = biological target: T1, Aurora kinase A (AURKA); experiment: crystal structure ([…] Å) and isothermal titration calorimetry; assay type: binding
# [4] = biological target: T2, Aurora kinase C kinase domain (truncation not stated for this experiment), phosphorylated (human)
# [5] = biological target: T2, Aurora kinase C kinase domain (truncation not stated for this experiment), phosphorylated (human); experiment: native MS; native nano-ESI ion mobility-mass spectrometry of the co-purified complexes, 250 mM ammonium acetate, ca. 10 µM, gentle ionisation conditions
# [6] = biological target: T3, Aurora kinase C kinase domain …; experiment: native mass spectrometry (native ESI-MS); conditions: chain shown with the change; concentration of ca. 10 µM; same gentle ionisation conditions; parent: 0
# INCENP IN-box (residues 835–903), phosphorylated on the TSS motif, sequence (Q9NQS7 other isoform, or with tags, fused parts or gaps): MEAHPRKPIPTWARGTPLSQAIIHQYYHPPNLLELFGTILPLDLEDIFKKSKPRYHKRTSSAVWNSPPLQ
Molecule,Kcat of the AURKC:INCENP complex on a peptide substrate [4],Km(peptide) of the AURKC:INCENP complex [4] [µM],other results
COc1ccc(NC(=O)Nc2ccc3c(c2)C(=O)N([C@@H](C)CO)C[C@H](C)[C@H](CN(C)Cc2ccc4c(c2)OCO4)O3)cc1 [BRD-7880],–,–,co-crystal structure (1.75 Å) [1]: The co-crystal structure with AURKC:INCENP reveals a completely ordered BRD-7880 molecule (Fig. 5a) which binds in the ATP-binding site; Kd [2]: 16 nM; Kd [3]: 341 nM
INCENP IN-box (residues 835–903) S894A (from UniProt Q9NQS7-1 835-903) (domain or fragment),38800 s⁻¹,83,–
"INCENP IN-box (residues 835–903), phosphorylated on the TSS motif, Q9NQS7-1 S893A; S894A; W897A (protein) MEAHPRKPIPTWARGTPLSQAIIHQYYHPPNLLELFGTILPLDLEDIFKKSKPRYHKRTAAAVANSPPLQ",–,–,other: % unbound AURKC (% unbound AURKC) [6]: 40

# Continued, in another order:
Kcat of the AURKC:INCENP complex on a peptide substrate [4],Km(peptide) of the AURKC:INCENP complex [4] [µM],Molecule,other results
46300,83,INCENP IN-box (residues 835–903) S893A (from UniProt Q9NQS7-1 835-903) (domain or fragment),–
41800,25.1,INCENP IN-box (residues 835–903) W897A (from UniProt Q9NQS7-1 835-903) (domain or fragment),–
48800,18.7,"INCENP IN-box (residues 835–903), phosphorylated on the TSS motif (from UniProt Q9NQS7-1 835-903) (domain or fragment)",% complex formed [5]: 100%
